Measured values published in publication PMC6335422 (Nature Communications, 2019).
Where a chain is given by its changes, count along the chain named.

T1: GST-tagged Mmi1^1-122 amino-terminal fragment (S. pombe, UniProt O74958 1-122)
T1 construct: Vector Tev4T1 (modified pGEX-4T1 with a TEV site); source: E. coli BL21 (Gold), purified (glutathione sepharose, SEC)
T1 sequence (looked up): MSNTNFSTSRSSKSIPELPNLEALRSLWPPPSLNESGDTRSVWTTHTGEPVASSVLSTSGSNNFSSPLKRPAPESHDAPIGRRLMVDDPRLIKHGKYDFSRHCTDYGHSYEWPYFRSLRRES

T2: Erh1 E85A (S. pombe, UniProt G2TRN4 1-104, E85A)
T2 construct: Erh1, S. pombe, residues 1-104, point mutant made with the MutanBEST kit; source: E. coli BL21 (Gold), purified (Ni-chelating resin, size-exclusion chromatography)
T2 sequence (looked up): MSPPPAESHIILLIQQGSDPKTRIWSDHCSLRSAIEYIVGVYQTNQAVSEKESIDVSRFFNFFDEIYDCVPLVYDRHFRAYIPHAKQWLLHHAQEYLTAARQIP

T3: Erh1 H9A (S. pombe, UniProt G2TRN4 1-104, H9A)
T3 construct: Erh1, S. pombe, residues 1-104, point mutant made with the MutanBEST kit; source: E. coli BL21 (Gold), purified (Ni-chelating resin, size-exclusion chromatography)
T3 sequence (looked up): T2 sequence (looked up) with H9A, A85E

T4: Erh1 R23A (S. pombe, UniProt G2TRN4 1-104, R23A)
T4 construct: Erh1, S. pombe, residues 1-104, point mutant made with the MutanBEST kit; source: E. coli BL21 (Gold), purified (Ni-chelating resin, size-exclusion chromatography)
T4 sequence (looked up): T2 sequence (looked up) with R23A, A85E

T5: Erh1 D27A (S. pombe, UniProt G2TRN4 1-104, D27A)
T5 construct: Erh1, S. pombe, residues 1-104, point mutant made with the MutanBEST kit; source: E. coli BL21 (Gold), purified (Ni-chelating resin, size-exclusion chromatography)
T5 sequence (looked up): T2 sequence (looked up) with D27A, A85E

T6: Erh1 D68A (S. pombe, UniProt G2TRN4 1-104, D68A)
T6 construct: Erh1, S. pombe, residues 1-104, point mutant made with the MutanBEST kit; source: E. coli BL21 (Gold), purified (Ni-chelating resin, size-exclusion chromatography)
T6 sequence (looked up): T2 sequence (looked up) with D68A, A85E

B1: Mmi1^95-122 peptide (SUMO tag removed) (peptide, UniProt O74958 95-122, looked up)
chain: GKYDFSRHCTDYGHSYEWPYFRSLRRES
notes: also called EID; EIM peptide; source: E. coli BL21 (Gold), purified as SUMO fusion, incubated with Erh1, SUMO tag removed by ULP1; not shown: His6, N-terminal, cleaved; SUMO, N-terminal, cleaved
B2: His-tagged Erh1 (residues 1-104) (natural protein, S. pombe, UniProt G2TRN4 1-104, looked up)
chain: T2 sequence (looked up) with A85E
notes: Erh1 (Enhancer of rudimentary homolog 1), S. pombe, residues 1-104; Cloned into p28a, a modified pET28a without a thrombin cleavage site; Homodimer by SEC and in the crystal; also called Enhancer of rudimentary homolog 1; source: E. coli BL21 (Gold), purified (Ni-chelating resin, SEC)
B3: Erh1: S. pombe ortholog of human ERH (protein)
chain: T2 sequence (looked up) with A85E
modifications: left off: His6, end not stated, state not stated
notes: S. pombe ortholog of human ERH
B4: SUMO-tagged Mmi1 95-122 (domain or fragment, S. pombe, UniProt O74958 95-122, looked up)
chain: GKYDFSRHCTDYGHSYEWPYFRSLRRES
notes: SUMO stands after the His6 tag at the N-terminus; also called Mmi1wt; source: E. coli BL21 (Gold), purified (Ni-chelating resin, size-exclusion chromatography); not shown: SUMO, N-terminal, kept
B5: SUMO tagged Mmi1^95-122 (domain or fragment, S. pombe, UniProt O74958 95-122, looked up)
chain: GKYDFSRHCTDYGHSYEWPYFRSLRRES
notes: SUMO protein fused at the N-terminus following the His6 tag (modified pET28a); source: E. coli BL21 (Gold), purified (Ni-chelating resin, SEC); not shown: SUMO, N-terminal, kept
B6: GST-tagged YTH domain of Mmi1: carboxy-terminal YTH domain of Mmi1, purified GST fusion (protein)
chain: SRYFIMLCDNETAIAHAKKTSIWAVKKDSSKRISDAYKKASVYFIFVAQQTYNALGYAQVVSDLNSTELPFWSDSSHAGGVRIKWIKTCNLFSAEISEIVSHMDHGSEARDGMEMMYDEGSRLCTLI
modifications: left off: GST, end not stated, kept
notes: carboxy-terminal YTH domain of Mmi1, purified GST fusion

Key:
[1] = molecular target: B2; experiment: SEC; analytical size-exclusion chromatography, calibrated Superdex75 10/300 GL column; Erh1 alone and Erh1 with Mmi1^95-122 after removal of the SUMO tag by ULP1; details: both partners purified
[2] = molecular target: T1, GST-tagged Mmi1^1-122 amino-terminal …; experiment: pull-down; GST-Mmi1 fusion proteins incubated with Erh1, collected with glutathione-agarose resin, eluted, SDS-PAGE with Coomassie blue staining; details: both partners purified
[3] = molecular target: the molecule itself; experiment: SEC; analytical size-exclusion chromatography, calibrated Superdex75 10/300 GL column; Erh1 alone and Erh1 with Mmi1^95-122 after removal of the SUMO tag by ULP1
[4] = Analytical size-exclusion chromatography (oligomeric state); format: physicochemical
Description: Next, we assessed the stoichiometry of Erh1 and Erh1-Mmi1^95–122 complexes by analytical size-exclusion chromatography (SEC) using a calibrated Superdex75 10/300 GL column (GE Healthcare). Erh1 eluted as a single peak at 11.41 mL, corresponding to an apparent molecular weight (MW) of 26 kDa. With a predicted molecular weight (MW) of ~13.2 kDa, this elution profile likely represents Erh1 homodimers (Fig. 1g). This is consistent with previous reports showing that human ERH protein exists as a dimer in solution[37].
We next purified SUMO-tagged Mmi1^95–122 and incubated it with Erh1, followed by removal of the SUMO tag by ULP1 enzyme.

Erh1 E85A = molecular target: T2, Erh1 E85A; experiment: ITC; SUMO-tagged Mmi1 peptides titrated into Erh1 in the sample cell; MicroCal iTC200, 293 K; 20 mM Tris-HCl pH 7.5, 150 mM NaCl; single-site binding model; details: both partners purified
Erh1 H9A = molecular target: T3, Erh1 H9A; experiment: as above; details: both partners purified
Erh1 R23A = molecular target: T4, Erh1 R23A; experiment: as above; details: both partners purified
Erh1 D27A = molecular target: T5, Erh1 D27A; experiment: as above; details: both partners purified
Erh1 D68A = molecular target: T6, Erh1 D68A; experiment: as above; details: both partners purified
[5] = molecular target: B2; experiment: ITC; MicroCal iTC200, 293 K, 20 mM Tris-HCl pH 7.5, 150 mM NaCl; SUMO-tagged Mmi1 peptides titrated into Erh1 in the cell; single-site binding model; details: both partners purified
Erh1 = experiment: GST pull-down of Erh1 with GST-tagged Mmi1 fragments, Coomassie; format: binding, S. pombe; details: GST-Mmi1 fusion incubated with Erh1, glutathione-agarose, SDS-PAGE
Text: Fig. 1 Mmi1 interacts with Erh1 in a 2:2 stoichiometry. a Shown is a schematic representation of the domain architecture of Mmi1. The disorder score from DISOPRED3 Server[62] and the conservation score are shown below. The conservation score is generated by a Protein Residue Conservation Prediction Server[63] from the sequence alignment of Mmi1 orthologues from S. pombe, S. cryophilus, S. octosporus, and S. japonicus. b–d Interactions of GST tagged Mmi1 peptides (GST-Mmi1) with Erh1 visualized by Coomassie blue staining. The indicated GST-Mmi1 fusion proteins or GST alone were incubated with Erh1. The complexes were collected with glutathione-agarose resin and bound proteins were eluted and then subjected to SDS-PAGE. GST or GST-Mmi1 fusion proteins without Erh1 are shown as a negative control. Source data are provided as a Source Data file. e The raw ITC titration data of Erh1 with SUMO tagged Mmi1^95–122 and its fitting curve are shown. KD dissociation constant, DP differential power, N binding stoichiometry, ΔH binding enthalpy. f ITC fitting curves of Erh1 using SUMO tagged Mmi1^95–122 (magenta), Mmi1^106–122 (blue) and Mmi1^95–111 (green) are shown. g Size-exclusion analysis of Erh1 (magenta) and Erh1-Mmi1^95–122 (blue). Marker sizes are 62.9 KDa (Albumin), 46.7 KDa (Ovalbumin), 20.3 KDa (Chymotrypsinogen), 14.6 KDa (Ribonuclease A). Also shown are theoretical monomer sizes (kDa) of Erh1 protein and Mmi1^95–122 peptide TEXT PRINTED IN THE PICTURE: (e) Mmi1^95–122 - Erh1: KD (μM) 0.83±0.19; N (sites) 0.90±0.01; ΔH (kJ per mol) −106±3.02 | (f) Mmi1^95–122: Erh1 KD (μM): 0.83±0.19 | (f) Mmi1^106–122: Erh1 KD (μM): 9.94±1.19 | (f) Mmi1^95–111: Erh1 KD (μM): no binding | (g) Erh1: 13.2 kDa | (g) Mmi1^95–122: 3.5 kDa
A region of Erh1 (residues 1–104) was amplified by PCR from the S. pombe genome and cloned into a modified pET28a (Novagen) vector without a thrombin protease cleavage site (p28a). GST-Mmi1^YTH was sub-cloned from a Mmi1^YTH-p28a construct to a modified PGex-4T1 vector with a TEV protease cleavage site (Tev4T1). […]

For B1, the “stoichiometry N” value [1] was 1 Mmi1 per Erh1 (printed as 2:2).

In the case of B2, the binding result [2] is reported as “binds” and the “stoichiometry N” value [3] is reported as 2.

With B3 the “calculated molecular weight of complex with Erh1 by SEC” value ([4]; Erh1 associated with Mmi1^95–122 after SUMO tag removal by ULP1, consistent with 2:2 stoichiometry) was 33 kDa and the “apparent molecular weight by SEC (Erh1 alone)” value ([4]; Superdex75 10/300 GL, calibrated, predicted monomer ~13.2 kDa, likely homodimer) was 26 kDa.

For B4, the Kd (Erh1 E85A) was 2150 ± 291 nM, the “stoichiometry N” value (Erh1 E85A) was 1.08 and the Kd (Erh1 H9A) was 1530 ± 205 nM. For the same molecule, the “stoichiometry N” value (Erh1 H9A) was 1.32, the Kd (Erh1 R23A) was 1480 ± 1070 nM and the “stoichiometry N” value (Erh1 R23A) was 1.28. The Kd (Erh1 D27A) was 2040 ± 366 nM, the “stoichiometry N” value (Erh1 D27A) was 1.14 and the Kd (Erh1 D68A) was 3960 ± 551 nM. The “stoichiometry N” value (Erh1 D68A) was 1.34.

With B5 the Kd [5] was 830 ± 190 nM and the “stoichiometry N” value [5] was 0.9.

In the case of B6, the “interaction with Erh1 (GST pull-down)” value (Erh1) is reported as “no interaction”.
